To fix the notation:
B1: Centrosomal protein of 55 kDa (Homo sapiens), Q53EZ4 (parent)
chain: MSSRSTKDLIKSKWGSKPSNSKSETTLEKLKGEIAHLKTSVDEITSGKGKLTDKERHRLLEKIRVLEAEKEKNAYQLTEKDKEIQRLRDQLKARYSTTTLLEQLEETTREGERREQVLKALSEEKDVLKQQLSAATSRIAELESKTNTLRLSQTVAPNCFNSSINNIHEMEIQLKDALEKNQQWLVYDQQREVYVKGLLAKIFELEKKTETAAHSLPQQTKKPESEGYLQEEKQKCYNDLLASAKKDLEVERQTITQLSFELSEFRRKYEETQKEVHNLNQLLYSQRRADVQHLEDDRHKTEKIQKLREENDIARGKLEEEKKRSEELLSQVQFLYTSLLKQQEEQTRVALLEQQMQACTLDFENEKLDRQHVQHQLHVILKELRKARNQITQLESLKQLHEFAITEPLVTFQGETENREKVAASPKSPTAALNESLVECPKCNIQYPATEHRDLLVHVEYCSK
partner: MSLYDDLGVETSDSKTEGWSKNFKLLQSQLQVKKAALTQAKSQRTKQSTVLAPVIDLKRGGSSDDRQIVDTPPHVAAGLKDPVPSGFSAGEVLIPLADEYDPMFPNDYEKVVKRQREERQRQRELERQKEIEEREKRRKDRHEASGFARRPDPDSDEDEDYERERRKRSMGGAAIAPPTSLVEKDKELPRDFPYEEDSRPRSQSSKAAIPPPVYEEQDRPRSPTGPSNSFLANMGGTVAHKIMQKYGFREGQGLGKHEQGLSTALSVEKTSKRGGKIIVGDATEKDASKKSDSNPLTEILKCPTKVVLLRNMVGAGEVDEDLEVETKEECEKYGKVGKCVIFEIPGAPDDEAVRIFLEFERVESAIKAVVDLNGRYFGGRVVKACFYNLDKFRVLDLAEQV
B2: Notch homolog 2 N-terminal-like protein A (Homo sapiens), Q7Z3S9 (parent)
chain: MCVTYHNGTGYCKCPEGFLGEYCQHRDPCEKNRCQNGGTCVAQAMLGKATCRCASGFTGEDCQYSTSHPCFVSRPCLNGGTCHMLSRDTYECTCQVGFTGKECQWTDACLSHPCANGSTCTTVANQFSCKCLTGFTGQKCETDVNECDIPGHCQHGGTCLNLPGSYQCQCLQGFTGQYCDSLYVPCAPSPCVNGGTCRQTGDFTFECNCLPETVRRGTELWERDREVWNGKEHDEN
partner: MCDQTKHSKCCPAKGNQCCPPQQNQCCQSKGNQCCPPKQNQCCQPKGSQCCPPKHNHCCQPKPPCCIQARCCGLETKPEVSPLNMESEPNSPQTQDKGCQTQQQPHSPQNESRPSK
B3: IQ motif and ubiquitin-like domain-containing protein (Homo sapiens), Q8NA54 (parent)
chain: MSNQQEKYEAQNIVNSTEESDDAFDTVTIPVPSEEPQESDQTEEHESGIEQFSESHAIHVEEQSDQSFSSLEPDNEQLMEEVISPRQVSYTPQHHEKQYAMQRPNDDSLAFLDKIKSVKESLQESVEDSLATVKVVLIPVGQEIVIPFKVDTILKYLKDHFSHLLGIPHSVLQIRYSGKILKNNETLVQHGVKPQEIVQVEIFSTNPDLYPVRRIDGLTDVSQIITVTVQTGLDQYQQVPVEIVKSDFHKPFLGGFRHKVTGVEYHNAGTQTVPKRIPERLSIFCRDTQTVFQKKNLQQTTNTTSTQMTNIGVYVSNMTDKLVTPGKYFSAAEYHAQRLKAVIVIQTYYRQWHAKIFVENLRRQKSLRLEWETQQELRKIREKEEWIKLDYHRRHNPKTNEDFEFLYNALEFWRQEELTRINQSFTGAERKAALCELLEKETQIIASIGRHRYIAYMANQEAAIQAFLDKCSAPKIWRTPNGKTIEMDTQFTIRARELQNIYKCIMLKNISQDERLDVLLTLKHTVKEHECKLTQEILELIDREVDLMMRGVKHHNLEGLRKRIATLFFHYIKTPLFNPEVAKYLKVPQDPLKFYKKIYFCHSCQLYLPSTEFSVSSTSRRIYRCRNCINLQNEAQKRESFLKYKCLLQQLYYTEADYEDDSKIAFLMQLQDIQYLTENIWASQSVLSACDNLSDLVMVRWNKSLEWSPWNCILLTKDEAAAHLKLTSIEEGYERSFIHKIKHKHILAKNYFSQVPVLASFILDDGEIDEIRWKYHSDTTPKIIESQRPPH
partner: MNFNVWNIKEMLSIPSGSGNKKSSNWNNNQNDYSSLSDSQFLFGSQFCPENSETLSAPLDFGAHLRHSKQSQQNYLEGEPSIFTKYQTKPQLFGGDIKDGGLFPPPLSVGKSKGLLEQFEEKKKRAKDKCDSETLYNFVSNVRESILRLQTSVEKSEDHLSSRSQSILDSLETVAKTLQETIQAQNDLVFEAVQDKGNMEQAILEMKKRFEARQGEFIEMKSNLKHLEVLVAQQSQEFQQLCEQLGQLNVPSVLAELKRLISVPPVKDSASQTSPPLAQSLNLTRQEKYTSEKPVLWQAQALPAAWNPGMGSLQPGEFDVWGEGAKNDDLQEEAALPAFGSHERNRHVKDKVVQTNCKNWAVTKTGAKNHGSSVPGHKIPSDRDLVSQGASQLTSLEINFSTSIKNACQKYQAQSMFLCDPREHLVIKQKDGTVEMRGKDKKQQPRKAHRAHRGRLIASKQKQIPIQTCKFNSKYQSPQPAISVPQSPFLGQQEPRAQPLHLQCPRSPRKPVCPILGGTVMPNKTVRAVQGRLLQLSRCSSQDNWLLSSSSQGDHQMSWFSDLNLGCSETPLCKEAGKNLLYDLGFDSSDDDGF
B4: Probable RNA-binding protein EIF1AD (Homo sapiens), Q8N9N8 (parent)
chain: MSQATKRKHVVKEVLGEHIVPSDQQQIVRVLRTPGNNLHEVETAQGQRFLVSMPSKYRKNIWIKRGDFLIVDPIEEGEKVKAEISFVLCKDHVRSLQKEGFWPEAFSEVAEKHNNRNRQTQPELPAEPQLSGEESSSEDDSDLFVNTNRRQYHESEEESEEEEAA
partner: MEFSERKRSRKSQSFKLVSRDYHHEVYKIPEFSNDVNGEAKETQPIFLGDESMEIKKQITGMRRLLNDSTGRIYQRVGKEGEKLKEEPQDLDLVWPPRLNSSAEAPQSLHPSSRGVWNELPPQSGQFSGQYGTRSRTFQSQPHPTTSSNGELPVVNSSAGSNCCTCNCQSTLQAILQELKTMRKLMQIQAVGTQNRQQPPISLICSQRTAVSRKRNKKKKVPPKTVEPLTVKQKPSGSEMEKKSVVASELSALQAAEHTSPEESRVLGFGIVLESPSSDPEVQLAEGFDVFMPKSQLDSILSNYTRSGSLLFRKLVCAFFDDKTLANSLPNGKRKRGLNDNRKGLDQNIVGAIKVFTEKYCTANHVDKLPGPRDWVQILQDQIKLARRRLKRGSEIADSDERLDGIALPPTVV
B5: Spermatogenesis-associated protein 2 (Homo sapiens), Q9UM82 (parent)
chain: MGKPSSMDTKFKDDLFRKYVQFHESKVDTTTSRQRPGSDECLRVAASTLLSLHKVDPFYRFRLIQFYEVVESSLRSLSSSSLRALHGAFSMLETVGINLFLYPWKKEFRSIKTYTGPFVYYVKSTLLEEDIRAILSCMGYTPELGTAYKLRELVETLQVKMVSFELFLAKVECEQMLEIHSQVKDKGYSELDIVSERKSSAEDVRGCSDALRRRAEGREHLTASMSRVALQKSASERAAKDYYKPRVTKPSRSVDAYDSYWESRKPPLKASLSLRKEPVATDVGDDLKDEIIRPSPSLLTMASSPHGSPDVLPPASPSNGPALLRGTYFSTQDDVDLYTDSEPRATYRRQDALRPDVWLLRNDAHSLYHKRSPPAKESALSKCQSCGLSCSSSLCQRCDSLLTCPPASKPSAFPSKASTHDSLAHGASLREKYPGQTQGLDRLPHLHSKSKPSTTPTSRCGFCNRPGATNTCTQCSKVSCDACLSAYHYDPCYKKSELHKFMPNNQLNYKSTQLSHLVYR
partner: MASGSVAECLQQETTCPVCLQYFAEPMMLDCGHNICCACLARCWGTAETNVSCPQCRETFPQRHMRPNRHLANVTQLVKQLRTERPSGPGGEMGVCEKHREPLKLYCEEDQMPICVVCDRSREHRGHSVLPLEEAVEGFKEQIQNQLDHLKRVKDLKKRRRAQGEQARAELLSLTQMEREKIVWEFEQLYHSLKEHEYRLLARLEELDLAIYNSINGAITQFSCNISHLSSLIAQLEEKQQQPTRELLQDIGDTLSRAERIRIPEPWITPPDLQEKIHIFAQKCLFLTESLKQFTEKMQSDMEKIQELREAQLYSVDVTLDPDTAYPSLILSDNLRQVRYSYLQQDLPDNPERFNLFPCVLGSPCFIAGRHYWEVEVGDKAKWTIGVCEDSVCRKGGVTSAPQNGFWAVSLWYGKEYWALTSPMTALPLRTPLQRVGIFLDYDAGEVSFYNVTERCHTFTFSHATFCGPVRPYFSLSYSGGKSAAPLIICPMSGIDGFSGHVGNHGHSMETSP
B6: Notch homolog 2 N-terminal-like protein A (Homo sapiens), Q7Z3S9 (parent)
chain: B2 chain
partner: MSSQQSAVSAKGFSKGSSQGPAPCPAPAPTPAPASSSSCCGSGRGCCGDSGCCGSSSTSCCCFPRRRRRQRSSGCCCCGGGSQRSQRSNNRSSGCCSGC

The variants in the first experiment derive from B1. The conditions noted are these: with spf45_human RBM17, Q96I25.
In the case of H57Q, the “effect of a mutation on the interaction” value is “with no effect”.

On to C236R, for which the “effect of a mutation on the interaction” value is “with no effect”.

Regarding A244P, the “effect of a mutation on the interaction” value is on record as “with no effect”.

The variants in a further experiment derive from B2. The conditions noted are these: with mcsp_human SMCP.
As for R74Q, the “effect of a mutation on the interaction” value is on record as “with no effect”.

Turning to A115T, the “effect of a mutation on the interaction” value is “with no effect”.

In another experiment the parent is B3. Particulars: with iho1_human IHO1, Q8IYA8.
On to I501F, for which the “effect of a mutation on the interaction” value is “disrupting interaction strength”.

On to V126M, for which the “effect of a mutation on the interaction” value is on record as “with no effect”.

Another experiment covers variants of B4. The conditions noted are these: with bend7_human BEND7, Q8N7W2.
Consider R48C, for which the “effect of a mutation on the interaction” value is “with no effect”.

Variants of B5 are the subject of another experiment. Particulars: with tri27_human TRIM27, P14373.
For the variant L443F, the “effect of a mutation on the interaction” value is on record as “disrupting interaction strength”.

Variants of B6 are the subject of a further experiment. The conditions noted are these: with crct1_human CRCT1, Q9UGL9.
As to A115T, the “effect of a mutation on the interaction” value is “with no effect”.

Regarding R74Q, the “effect of a mutation on the interaction” value was “with no effect”.

The values above are taken from IntAct's records for PubMed 31515488.
